Four sequences from the supplement of paper PMC5998384 can be followed below.

Data set [1] relates to HeLa Kyoto. Briefly: solubility in G1/S (NP-40 vs SDS abundance) (log2 ratio); higher = more soluble. Conditions: cell cycle stage: G1/S.
Data set [2] has as its system HeLa Kyoto. The data set is described as follows: melting temperature (median over replicates), in situ; higher = more thermally stable.
Data set [3] deals with HeLa Kyoto. Briefly: solubility change mitosis vs G1/S (difference of NP-40 vs SDS log2 ratios) (log2 ratio difference); higher = more soluble in mitosis.
In data set [4] the test system is HeLa Kyoto. Briefly: thermal stability score vs G1/S (z-score of summed log2 fold changes over temperatures); higher = more thermally stable than in G1/S.
[5] abbreviates: cell cycle stage: early G1 (4.5 h after nocodazole release).
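Wherever melting temperature (median over replicates), in situ is given: HeLa Kyoto cells synchronized by double thymidine or nocodazole block, proteins quantified by TMT10plex mass spectrometry, three independent biological replicates.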
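Wherever solubility change mitosis vs G1/S (difference of NP-40 vs SDS log2 ratios) is given: synchronized HeLa Kyoto cells (double thymidine block for G1/S, nocodazole release for mitosis), protein amounts in NP-40 versus SDS lysates quantified by mass spectrometry, three biological replicates.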
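Wherever solubility in G1/S (NP-40 vs SDS abundance) is given: HeLa Kyoto cells arrested at G1/S by double thymidine block, proteins quantified by TMT10plex mass spectrometry in mild NP-40 versus SDS extracts, three biological replicates.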
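Wherever thermal stability score vs G1/S (z-score of summed log2 fold changes over temperatures) is given: synchronized HeLa Kyoto cells, proteins quantified by TMT10plex mass spectrometry, three biological replicates, mitosis taken 0.5 h after nocodazole release, G1/S directly after double thymidine block.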

As for “MEDAGGGEETPAPEAPHPPQLAPPEEQGLLFQEETIDLGGDEFGSEENETASEGSSPLADKLNEHMMESVLISDSPNSEGDAGDLGRVRDEAEPGGEGDPGPEPAGTPSPSGEADGDCAPEDAAPSSGGAPRQDAAREVPGSEAARPEQEPPVAEPVPVCTIFSQRAPPASGDGFEPQMVKSPSFGGASEASARTPPQVVQPSPSLSTFFGDTAASHSLASDFFDSFTTSAFISVSNPGAGSPAPASPPPLAVPGTEGRPEPVAMRGPQAAAPPASPEPFAHIQAVFAGSDDPFATALSMSEMDRRNDAWLPGEATRGVLRAVATQQRGAVFVDKENLTMPGLRFDNIQGDAVKDLMLRFLGEKAAAKRQVLNADSVEQSFVGLKQLISCRNWRAAVDLCGRLLTAHGQGYGKSGLLTSHTTDSLQLWFVRLALLVKLGLFQNAEMEFEPFGNLDQPDLYYEYYPHVYPGRRGSMVPFSMRILHAELQQYLGNPQESLDRLHKVKTVCSKILANLEQGLAEDGGMSSVTQEGRQASIRLWRSRLGRVMYSMANCLLLMKDYVLAVEAYHSVIKYYPEQEPQLLSGIGRISLQIGDIKTAEKYFQDVEKVTQKLDGLQGKIMVLMNSAFLHLGQNNFAEAHRFFTEILRMDPRNAVANNNAAVCLLYLGKLKDSLRQLEAMVQQDPRHYLHESVLFNLTTMYELESSRSMQKKQALLEAVAGKEGDSFNTQCLKLA [TRAPPC12]”, the “solubility in G1/S (log2)” value in data set [1] is 0.188. For the same sequence, the melting temperature in data set [2] (cell cycle stage: G1/S) amounted to 50.1 °C; in data set [2] (cell cycle stage: mitosis), 49.2 °C. The “solubility change mitosis (log2)” value in data set [3] was -0.258. Besides, the results for the thermal stability score in data set [4] (setting [5]) and in data set [4] (cell cycle stage: mitosis) were 0.55 and 0.59, respectively.
As to “MEDLDQSPLVSSSDSPPRPQPAFKYQFVREPEDEEEEEEEEEEDEDEDLEELEVLERKPAAGLSAAPVPTAPAAGAPLMDFGNDFVPPAPRGPLPAAPPVAPERQPSWDPSPVSSTVPAPSPLSAAAVSPSKLPEDDEPPARPPPPPPASVSPQAEPVWTPPAPAPAAPPSTPAAPKRRGSSGSVDETLFALPAASEPVIRSSAENMDLKEQPGNTISAGQEDFPSVLLETAASLPSLSPLSAASFKEHEYLGNLSTVLPTEGTLQENVSEASKEVSEKAKTLLIDRDLTEFSELEYSEMGSSFSVSPKAESAVIVANPREEIIVKNKDEEEKLVSNNILHNQQELPTALTKLVKEDEVVSSEKAKDSFNEKRVAVEAPMREEYADFKPFERVWEVKDSKEDSDMLAAGGKIESNLESKVDKKCFADSLEQTNHEKDSESSNDDTSFPSTPEGIKDRSGAYITCAPFNPAATESIATNIFPLLGDPTSENKTDEKKIEEKKAQIVTEKNTSTKTSNPFLVAAQDSETDYVTTDNLTKVTEEVVANMPEGLTPDLVQEACESELNEVTGTKIAYETKMDLVQTSEVMQESLYPAAQLCPSFEESEATPSPVLPDIVMEAPLNSAVPSAGASVIQPSSSPLEASSVNYESIKHEPENPPPYEEAMSVSLKKVSGIKEEIKEPENINAALQETEAPYISIACDLIKETKLSAEPAPDFSDYSEMAKVEQPVPDHSELVEDSSPDSEPVDLFSDDSIPDVPQKQDETVMLVKESLTETSFESMIEYENKEKLSALPPEGGKPYLESFKLSLDNTKDTLLPDEVSTLSKKEKIPLQMEELSTAVYSNDDLFISKEAQIRETETFSDSSPIEIIDEFPTLISSKTDSFSKLAREYTDLEVSHKSEIANAPDGAGSLPCTELPHDLSLKNIQPKVEEKISFSDDFSKNGSATSKVLLLPPDVSALATQAEIESIVKPKVLVKEAEKKLPSDTEKEDRSPSAIFSAELSKTSVVDLLYWRDIKKTGVVFGASLFLLLSLTVFSIVSVTAYIALALLSVTISFRIYKGVIQAIQKSDEGHPFRAYLESEVAISEELVQKYSNSALGHVNCTIKELRRLFLVDDLVDSLKFAVLMWVFTYVGALFNGLTLLILALISLFSVPVIYERHQAQIDHYLGLANKNVKDAMAKIQAKIPGLKRKAE [RTN4]”, the “solubility in G1/S (log2)” value in data set [1] is -0.0792. Also, the melting temperature came to 56.6 °C in data set [2] (cell cycle stage: G1/S) and 56.7 °C in data set [2] (cell cycle stage: mitosis). Also, the “solubility change mitosis (log2)” value in data set [3] was -0.155. The thermal stability score is -0.746 in data set [4] (setting [5]) and -1.43 in data set [4] (cell cycle stage: mitosis).
Regarding “MEDYLQGCRAALQESRPLHVVLGNEACDLDSTVSALALAFYLAKTTEAEEVFVPVLNIKRSELPLRGDIVFFLQKVHIPESILIFRDEIDLHALYQAGQLTLILVDHHILSKSDTALEEAVAEVLDHRPIEPKHCPPCHVSVELVGSCATLVTERILQGAPEILDRQTAALLHGTIILDCVNMDLKIGKATPKDSKYVEKLEALFPDLPKRNDIFDSLQKAKFDVSGLTTEQMLRKDQKTIYRQGVKVAISAIYMDLEAFLQRSNLLADLHAFCQAHSYDVLVAMTIFFNTHNEPVRQLAIFCPHVALQTTICEVLERSHSPPLKLTPASSTHPNLHAYLQGNTQVSRKKLLPLLQEALSAYFDSMKIPSGQPETADVSREQVDKELDRASNSLISGLSQDEEDPPLPPTPMNSLVDECPLDQGLPKLSAEAVFEKCSQISLSQSTTASLSKK [PRUNE]”, the “solubility in G1/S (log2)” value in data set [1] was found to be 0.182. For the same sequence, the results for the melting temperature in data set [2] (cell cycle stage: G1/S) and in data set [2] (cell cycle stage: mitosis) were 50.3 °C and 49.6 °C, respectively. Moreover, in data set [3], the “solubility change mitosis (log2)” value is -0.0758. For the same sequence, the thermal stability score in data set [4] (setting [5]) is 0.764; in data set [4] (cell cycle stage: mitosis), 0.775.
Consider “MEEAELVKGRLQAITDKRKIQEEISQKRLKIEEDKLKHQHLKKKALREKWLLDGISSGKEQEEMKKQNQQDQHQIQVLEQSILRLEKEIQDLEKAELQISTKEEAILKKLKSIERTTEDIIRSVKVEREERAEESIEDIYANIPDLPKSYIPSRLRKEINEEKEDDEQNRKALYAMEIKVEKDLKTGESTVLSSIPLPSDDFKGTGIKVYDDGQKSVYAVSSNHSAAYNGTDGLAPVEVEELLRQASERNSKSPTEYHEPVYANPFYRPTTPQRETVTPGPNFQERIKIKTNGLGIGVNESIHNMGNGLSEERGNNFNHISPIPPVPHPRSVIQQAEEKLHTPQKRLMTPWEESNVMQDKDAPSPKPRLSPRETIFGKSEHQNSSPTCQEDEEDVRYNIVHSLPPDINDTEPVTMIFMGYQQAEDSEEDKKFLTGYDGIIHAELVVIDDEEEEDEGEAEKPSYHPIAPHSQVYQPAKPTPLPRKRSEASPHENTNHKSPHKNSISLKEQEESLGSPVHHSPFDAQTTGDGTEDPSLTALRMRMAKLGKKVI [PALMD]”, for which the “solubility in G1/S (log2)” value in data set [1] is 0.412. The melting temperature is 53.2 °C in data set [2] (cell cycle stage: G1/S) and 53.1 °C in data set [2] (cell cycle stage: mitosis). The “solubility change mitosis (log2)” value in data set [3] stood at 0.124. The values for the thermal stability score in data set [4] (setting [5]) and in data set [4] (cell cycle stage: mitosis) were -0.598 and 0.967, respectively.
